Assay results as given in patent US20040006214A1.

Biological target: hepatitis C virus in patient serum
Test: immobilized adsorbent shaken with HCV patient serum 37 C 2 h; HCV RNA in supernatant against saline control

In the case of “peptide having the amino acid sequence of 57 residues in the C3 domain of protein G with cysteine ad”, the Adsorption rate (%) is reported as 28%.

Work on “protein G (Pharmacia LKB) (from UniProt P19909 303-497)” yielded an Adsorption rate (%) of 82%.
